Test [1] addresses CagY-C2_(C3S/C28S/C41S) (Helicobacter pylori strain Q121B). The test is described as follows: non-reducing SDS-PAGE; affinity-purified His-tagged protein on 15% SDS-PAGE without reducing agent, beside a reducing gel; multimers held by disulphide linkages.
Test [2] concerns the target CagY-C2 (recombinant N-terminal His-tagged CagY repeat 2 motif A fragment) (Helicobacter pylori strain Q121B). Put plainly: SEC; 26/60 Superdex 200, 20 mM Tris (pH 8.0), 200 mM NaCl, 2 mL/min; calibrated with known standards; peaks analysed by SDS-PAGE (not shown). For orientation: SEC sorts molecules by how far they enter the pores of the column.
The target is the same in test [3]. Put plainly: non-reducing SDS-PAGE; affinity-purified His-tagged protein on 15% SDS-PAGE without reducing agent, beside a reducing gel; multimers held by disulphide linkages.

Several values for one entry are separate records, joined by “and”; a condition that tells them apart may be missing. Identical values can stand only once.

In turn, “CagY-C2_(C3S/C28S/C41S) (domain or fragment)” gave a stoichiometry N in test [1] of 2.

For the substance “CagY-C2 (recombinant N-terminal His-tagged CagY repeat 2 motif A fragment) (domain or fragment)”, the stoichiometry N in test [2] is 2; in test [3], 2 and 3 and 4.

What is called stoichiometry N is a count of units in the complex or per binding partner.

(Values after article PMC2581425.)
